First the molecules themselves.
T1: murine HER2 (murine, UniProt P70424 23-1256)
T1 chain: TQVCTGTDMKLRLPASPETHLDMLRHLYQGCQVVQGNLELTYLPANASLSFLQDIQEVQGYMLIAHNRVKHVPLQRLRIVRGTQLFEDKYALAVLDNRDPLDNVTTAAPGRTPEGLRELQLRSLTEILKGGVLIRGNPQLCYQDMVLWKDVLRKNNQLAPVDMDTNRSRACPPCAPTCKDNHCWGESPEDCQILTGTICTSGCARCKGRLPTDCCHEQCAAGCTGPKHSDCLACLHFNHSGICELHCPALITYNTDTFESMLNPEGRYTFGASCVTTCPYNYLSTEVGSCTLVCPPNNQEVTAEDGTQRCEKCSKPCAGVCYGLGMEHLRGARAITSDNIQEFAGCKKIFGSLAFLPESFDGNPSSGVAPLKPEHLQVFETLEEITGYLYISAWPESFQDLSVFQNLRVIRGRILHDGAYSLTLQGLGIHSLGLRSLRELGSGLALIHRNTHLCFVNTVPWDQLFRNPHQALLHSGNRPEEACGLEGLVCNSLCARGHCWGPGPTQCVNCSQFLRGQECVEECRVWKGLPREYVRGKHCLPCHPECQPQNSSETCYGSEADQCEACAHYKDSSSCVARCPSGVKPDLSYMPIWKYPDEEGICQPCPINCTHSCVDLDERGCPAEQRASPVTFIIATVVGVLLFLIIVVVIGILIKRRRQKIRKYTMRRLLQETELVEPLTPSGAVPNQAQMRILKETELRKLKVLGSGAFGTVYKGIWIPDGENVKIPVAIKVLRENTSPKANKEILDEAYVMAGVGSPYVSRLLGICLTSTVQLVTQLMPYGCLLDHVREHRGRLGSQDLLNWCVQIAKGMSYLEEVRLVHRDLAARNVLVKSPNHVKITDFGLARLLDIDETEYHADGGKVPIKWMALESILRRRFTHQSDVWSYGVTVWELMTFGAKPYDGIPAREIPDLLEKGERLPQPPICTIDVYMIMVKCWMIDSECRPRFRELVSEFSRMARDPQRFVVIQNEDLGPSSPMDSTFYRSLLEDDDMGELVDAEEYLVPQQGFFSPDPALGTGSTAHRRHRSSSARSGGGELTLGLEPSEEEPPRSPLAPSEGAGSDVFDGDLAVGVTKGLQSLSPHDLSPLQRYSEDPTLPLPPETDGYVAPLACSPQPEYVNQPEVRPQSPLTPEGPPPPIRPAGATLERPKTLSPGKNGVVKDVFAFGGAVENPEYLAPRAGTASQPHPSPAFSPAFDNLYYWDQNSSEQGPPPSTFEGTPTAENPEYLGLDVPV

B1: 1121 Pro1042 (protein)
chain: QVQLQESGGGLVQAGGSLRLSCAASGFIFSDYAMTWVRQAPGKGLEWVSSINWSGTHTNYADSVKGRFTISRDNAKKTLYLQMNSLKSEDTAVYYCARGWMVVPDSTRGQGTQVTVSS
B2: h1156 Pro1061 (antibody, V domains shown)
VH: QVQLLESGGGLVQPGGSLRLSCAASRNIGSNYAVGWFRQAPGKEREPVAALRWTGSIIGYDDSLRGRFTISKDNSKNTLYLQMNSLKPEDTAVYYCAARILDRSSYDYWGQGTLVTVSS
B3: 1156 Pro1044 (antibody, V domains shown)
VH: B2 VH with L5Q, P14A, R19K, L20V, N74D, S75A, L79V, A92G, L114Q
B4: h1162 Pro1064 (antibody, V domains shown)
VH: QVQLLESGGGLVQPGGSLRLSCAASGRPFSGNAMGWFRQAPGKEREFVAAISWSGDSTYYADSVKGRFTISRDNSKNTLYLQMNSLRAEDTAVYYCAATRSFYSRTYYTRPSDYNYWGPGTLVTVSS
B5: 1162 Pro1047 (antibody, V domains shown)
VH: B4 VH with L5Q, P14A, S75D, K76E, L79A, R87K, A88P, L122Q
B6: 1091 Pro1039 (protein)
chain: QVQLQESGGGLVQPGGSLRLSCAASGFTFDDYAMSWVRQAPGKGLEWVSSINWSGTHTDYADSVKGRFTISRDNAKNTLYLQMNSLKSEDSAVYYCVKGWRLTGGYYDSVQGQGTQVTVSS
B7: 1092 Pro1040 (protein)
chain: B6 chain with P14A, G16A, M34L
B8: 1097 Pro1041 (protein)
chain: B6 chain with T28I, S35T, L102H, G104D, G105N, D108A, S109G
B9: 1160 Pro1046 (antibody, V domains shown)
VH: QVQLQESGGGLVQAGGSLRLSCAASGRTFSNERLGWFRQAPGKERELVAAIRWSGVIIGYADSVRGRFTISRDNAKSTVYLQMNSLRPEDTAVYFCAADRGVYGTWDYWGQGTQVTVSS
B10: 1055 Pro1036 (protein)
chain: QVQLQESGGGLVQPGGSLRLTCEVSGRAISSYAISWFRQAPGEEREFVAAINWSGTHTNYADSVKGRFTISRDNVKNTVYLQMNSLKPEDTATYFCSRGWSVFDPDYRGQGTQVTVSS
B11: 1059 Pro1038 (protein)
chain: B10 chain with E23A, V24A, N59D, V75A, T93V
B12: 1058 Pro1037 (protein)
chain: B10 chain with P14A, E23A, V24A, N59D, N77R
B13: 1159 Pro1045 (antibody, V domains shown)
VH: QVQLQESGGGLVQAGGSLRLSCATSGRTFSSLAMGWFRQAPGKERELVAGISWSGSTTYYADSVKGRFAISRDNAKNTVYLQMNSLKPEDTAVYYCAARTSSIATIGREYDYWGQGTQVTVSS
B14: h1159 Pro1062 (antibody, V domains shown)
VH: B13 VH with Q5L, A14P, A75S, V79L, K87R, P88A, Q118L
B15: 1139 Pro1043 (protein)
chain: QVQLQESGGGLVQPGGSLRLSCAASGFTFDDYAMSWIRQAPGKEMEWVSGINWSGTHTRYADSVKGRFTISRDNAKNTLDLQMNSLISEDTAVYYCARGFAADSRSTRGQGTQVTVSS
B16: h1139 Pro1060 (protein)
chain: B15 chain with Q5V, L11V, Q13R, T78S, D80Y, I87R, S88A, V93L, Q113L
B17: mouse CA9 (enzyme)
chain: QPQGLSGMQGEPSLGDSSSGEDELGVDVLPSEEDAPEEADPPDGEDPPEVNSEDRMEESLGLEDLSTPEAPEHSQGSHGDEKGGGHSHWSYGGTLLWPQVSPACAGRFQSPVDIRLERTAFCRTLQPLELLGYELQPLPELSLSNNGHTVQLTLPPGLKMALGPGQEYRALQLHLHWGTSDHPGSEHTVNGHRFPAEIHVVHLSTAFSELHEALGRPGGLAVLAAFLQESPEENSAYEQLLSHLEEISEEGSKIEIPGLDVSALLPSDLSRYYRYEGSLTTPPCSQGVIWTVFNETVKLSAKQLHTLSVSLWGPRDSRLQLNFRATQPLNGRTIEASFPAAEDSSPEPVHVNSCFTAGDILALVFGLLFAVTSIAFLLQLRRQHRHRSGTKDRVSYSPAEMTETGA
B18: h456 Pro509 (antibody, V domains shown)
VH: QVQLVESGGGLVQPGGSLRLSCAASGSALIINAMGWYRQAPGKQRELVATVTRSGRTNYADSVKGRFTISRDNSKNTLYLQMNSLRAEDTAVYYCNVALWIADGEYDYWGQGTLVTVSS

This passage reports Kd results from patent publication US20230340159A1 (published 2023).

Substitutions are numbered along the chain they refer to. Bounds are passed on as bounds.

Sequence of mouse CA9 protein (Q8VHB5 32-437): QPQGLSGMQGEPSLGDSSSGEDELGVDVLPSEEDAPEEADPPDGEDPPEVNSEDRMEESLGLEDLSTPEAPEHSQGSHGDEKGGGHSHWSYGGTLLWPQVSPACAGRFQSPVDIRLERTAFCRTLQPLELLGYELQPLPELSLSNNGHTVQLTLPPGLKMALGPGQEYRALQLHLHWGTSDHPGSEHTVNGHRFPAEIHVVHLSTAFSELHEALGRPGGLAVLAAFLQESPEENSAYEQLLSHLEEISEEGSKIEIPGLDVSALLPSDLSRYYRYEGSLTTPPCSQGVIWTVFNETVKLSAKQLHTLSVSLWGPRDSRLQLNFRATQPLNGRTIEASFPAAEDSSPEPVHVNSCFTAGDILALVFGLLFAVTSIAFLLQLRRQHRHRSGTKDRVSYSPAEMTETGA

The target of the first assay is Human Her2 protein (human, UniProt P04626 23-652).
In the case of B1, the Kd (as a rule, the constant that tells how readily two partners part at equilibrium) worked out at 3.8 nM. With B2, the Kd is less than 0.01 nM. The molecule B3 displayed a Kd of 6.6 nM. Consider B4, for which the affinity, expressed as Kd, was 22.9 nM. B5 returned a Kd of 21.4 nM. B6 displayed a Kd of 6 nM. B7 registered a Kd of 3.1 nM. B8 displayed a Kd of 2.5 nM.

Regarding B9, binding was characterised by a dissociation constant (Kd) of 56.7 nM. Take B10: the Kd turned out to be 53.1 nM. B11 had a Kd of 23 nM.

Turning to B12, the Kd is 8.6 nM. With B13, the affinity, expressed as Kd, was 18 nM. Regarding B14, binding was put at a Kd of 106 nM. Consider B15, for which binding was characterised by a dissociation constant (Kd) of 5.6 nM. On to B16, for which binding was characterised by a dissociation constant (Kd) of 7.3 nM.

A further assay deals with T1, murine HER2.
Molecule B4 had a Kd of 122 nM.

B5 had a Kd of 54 nM. Take B13: the Kd turned out to be 80 nM.

Take B14: the Kd was determined as 19100 nM.

Another assay deals with 456.
Sequence of 456 (Q8VHB5 32-437): as above
B17 registered a Kd of 8.2 nM.

A further assay has as its target mouse CA9 protein (mouse, UniProt Q8VHB5 32-437).
B18 had a Kd of 1.4 nM.
